Source: US20150065556A1, “THERAPEUTIC TARGETS FOR MITOCHONDRIAL DISORDERS” (Whitehead Institute for Biomedical Research, priority 2013, published 2015)

Assays:
[1] = target: 60 kDa heat shock protein, mitochondrial (UniProt P10809); assay: IP-MS with Flag tagged ATPIF1 as bait, no antimycin
[2] = target: ATP synthase subunit O, mitochondrial precursor (UniProt P48047); assay: as above
[3] = target: ATP synthase subunit alpha (UniProt P25705); assay: as above
[4] = target: ATP synthase subunit b, mitochondrial precursor (UniProt P24539); assay: as above
ATP synthase subunit b, mitochondrial precursor, sequence (P24539 43-256 limits assumed): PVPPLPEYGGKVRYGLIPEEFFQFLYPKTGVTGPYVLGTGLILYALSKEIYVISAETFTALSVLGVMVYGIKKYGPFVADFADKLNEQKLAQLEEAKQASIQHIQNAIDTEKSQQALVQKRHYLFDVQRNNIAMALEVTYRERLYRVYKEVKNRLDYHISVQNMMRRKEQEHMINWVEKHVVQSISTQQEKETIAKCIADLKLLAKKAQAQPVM

[5] = target: ATP synthase subunit beta (UniProt P06576); assay: as above
ATP synthase subunit beta, sequence (P06576 48-529): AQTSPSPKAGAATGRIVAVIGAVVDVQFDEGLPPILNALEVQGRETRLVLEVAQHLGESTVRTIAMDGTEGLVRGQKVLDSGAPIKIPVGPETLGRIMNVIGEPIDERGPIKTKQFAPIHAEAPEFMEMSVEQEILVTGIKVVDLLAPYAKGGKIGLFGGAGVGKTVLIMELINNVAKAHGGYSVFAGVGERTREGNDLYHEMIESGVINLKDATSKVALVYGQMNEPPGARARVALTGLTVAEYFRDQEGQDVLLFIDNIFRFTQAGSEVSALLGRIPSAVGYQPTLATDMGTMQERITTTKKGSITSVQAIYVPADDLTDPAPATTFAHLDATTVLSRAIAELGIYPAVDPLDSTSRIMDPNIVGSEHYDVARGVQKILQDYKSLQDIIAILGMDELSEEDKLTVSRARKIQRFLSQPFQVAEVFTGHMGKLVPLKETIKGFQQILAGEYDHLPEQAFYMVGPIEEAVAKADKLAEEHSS

[6] = target: ATP synthase subunit d, mitochondrial isoform a (UniProt O75947); assay: as above
ATP synthase subunit d, mitochondrial isoform a, sequence (O75947 2-161): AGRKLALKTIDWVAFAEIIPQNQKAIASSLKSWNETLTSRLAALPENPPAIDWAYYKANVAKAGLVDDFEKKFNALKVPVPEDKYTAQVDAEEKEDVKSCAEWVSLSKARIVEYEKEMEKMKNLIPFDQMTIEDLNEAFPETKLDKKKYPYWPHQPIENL

[7] = target: ATP synthase subunit g, mitochondrial (UniProt O75964); assay: as above
ATP synthase subunit g, mitochondrial, sequence (O75964 2-103): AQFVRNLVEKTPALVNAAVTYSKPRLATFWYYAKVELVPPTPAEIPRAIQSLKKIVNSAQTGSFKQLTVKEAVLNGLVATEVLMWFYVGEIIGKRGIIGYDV

[8] = target: ATP synthase subunit gamma, isoform L (UniProt P36542); assay: as above
ATP synthase subunit gamma, isoform L, sequence (P36542 26-298): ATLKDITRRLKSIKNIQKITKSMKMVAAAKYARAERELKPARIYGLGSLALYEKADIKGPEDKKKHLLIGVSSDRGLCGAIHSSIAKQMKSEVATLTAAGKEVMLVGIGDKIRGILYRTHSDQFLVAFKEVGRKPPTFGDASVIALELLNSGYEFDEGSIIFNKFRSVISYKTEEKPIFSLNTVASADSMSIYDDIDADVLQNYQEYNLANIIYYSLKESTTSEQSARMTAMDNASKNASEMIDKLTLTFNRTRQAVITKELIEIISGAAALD

[9] = target: ATPase inhibitor, mitochondria; isoform 1 (UniProt Q9UII2); assay: as above
ATPase inhibitor, mitochondria; isoform 1, sequence (Q9UII2 26-106): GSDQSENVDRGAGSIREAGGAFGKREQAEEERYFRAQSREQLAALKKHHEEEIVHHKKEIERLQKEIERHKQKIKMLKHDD

[10] = target: UDP-glucose: glycoprotein glucosyltransferase 1 (UniProt Q9NYU2); assay: as above
[11] = target: mitochondrial-processing peptidase subunit alpha (UniProt Q10713); assay: as above
mitochondrial-processing peptidase subunit alpha, sequence (Q10713 34-525 limits assumed): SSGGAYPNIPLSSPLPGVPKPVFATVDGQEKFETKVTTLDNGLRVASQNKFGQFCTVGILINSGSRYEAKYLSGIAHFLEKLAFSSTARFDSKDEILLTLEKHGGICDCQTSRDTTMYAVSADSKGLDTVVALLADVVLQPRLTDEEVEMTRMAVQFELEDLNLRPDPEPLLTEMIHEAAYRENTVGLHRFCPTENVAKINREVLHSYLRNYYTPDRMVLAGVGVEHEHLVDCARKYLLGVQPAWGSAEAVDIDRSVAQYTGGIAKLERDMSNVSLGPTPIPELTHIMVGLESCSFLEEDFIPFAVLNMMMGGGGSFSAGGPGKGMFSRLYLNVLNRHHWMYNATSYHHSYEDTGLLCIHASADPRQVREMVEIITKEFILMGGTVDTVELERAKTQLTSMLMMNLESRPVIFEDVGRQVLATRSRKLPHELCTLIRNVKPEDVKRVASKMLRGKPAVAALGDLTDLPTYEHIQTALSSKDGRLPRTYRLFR

[12] = target: mitochondrial-processing peptidase subunit beta (UniProt O75439); assay: as above
mitochondrial-processing peptidase subunit beta, sequence (O75439 44-489 limits assumed): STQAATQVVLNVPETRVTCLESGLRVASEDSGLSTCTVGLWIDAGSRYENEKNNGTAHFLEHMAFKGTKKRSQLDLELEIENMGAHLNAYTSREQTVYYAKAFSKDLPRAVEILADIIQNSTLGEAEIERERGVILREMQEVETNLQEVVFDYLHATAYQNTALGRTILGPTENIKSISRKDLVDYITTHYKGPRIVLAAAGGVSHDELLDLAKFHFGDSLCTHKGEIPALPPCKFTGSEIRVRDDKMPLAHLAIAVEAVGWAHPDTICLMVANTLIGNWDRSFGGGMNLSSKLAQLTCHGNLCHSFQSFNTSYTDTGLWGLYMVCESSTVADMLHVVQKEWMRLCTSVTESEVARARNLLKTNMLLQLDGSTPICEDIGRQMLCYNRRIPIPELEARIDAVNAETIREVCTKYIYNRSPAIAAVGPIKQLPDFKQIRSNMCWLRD

[13] = target: ornithine aminotransferase (UniProt P04181); assay: as above
ornithine aminotransferase, sequence (P04181 26-439 limits assumed): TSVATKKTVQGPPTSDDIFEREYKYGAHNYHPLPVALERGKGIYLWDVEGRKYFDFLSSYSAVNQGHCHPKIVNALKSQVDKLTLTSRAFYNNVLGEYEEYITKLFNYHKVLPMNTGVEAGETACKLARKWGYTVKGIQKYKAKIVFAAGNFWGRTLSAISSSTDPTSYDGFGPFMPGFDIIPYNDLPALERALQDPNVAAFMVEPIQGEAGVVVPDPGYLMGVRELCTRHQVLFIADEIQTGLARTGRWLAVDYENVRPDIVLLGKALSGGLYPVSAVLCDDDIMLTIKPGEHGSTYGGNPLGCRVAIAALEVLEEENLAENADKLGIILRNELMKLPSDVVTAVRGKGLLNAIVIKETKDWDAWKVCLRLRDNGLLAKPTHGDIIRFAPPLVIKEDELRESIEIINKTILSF

protein zyg-11 homolog B [14] = target: protein zyg-11 homolog B (UniProt Q9C0D3); assay: as above
protein zyg-11 homolog B, sequence (Q9C0D3 whole entry): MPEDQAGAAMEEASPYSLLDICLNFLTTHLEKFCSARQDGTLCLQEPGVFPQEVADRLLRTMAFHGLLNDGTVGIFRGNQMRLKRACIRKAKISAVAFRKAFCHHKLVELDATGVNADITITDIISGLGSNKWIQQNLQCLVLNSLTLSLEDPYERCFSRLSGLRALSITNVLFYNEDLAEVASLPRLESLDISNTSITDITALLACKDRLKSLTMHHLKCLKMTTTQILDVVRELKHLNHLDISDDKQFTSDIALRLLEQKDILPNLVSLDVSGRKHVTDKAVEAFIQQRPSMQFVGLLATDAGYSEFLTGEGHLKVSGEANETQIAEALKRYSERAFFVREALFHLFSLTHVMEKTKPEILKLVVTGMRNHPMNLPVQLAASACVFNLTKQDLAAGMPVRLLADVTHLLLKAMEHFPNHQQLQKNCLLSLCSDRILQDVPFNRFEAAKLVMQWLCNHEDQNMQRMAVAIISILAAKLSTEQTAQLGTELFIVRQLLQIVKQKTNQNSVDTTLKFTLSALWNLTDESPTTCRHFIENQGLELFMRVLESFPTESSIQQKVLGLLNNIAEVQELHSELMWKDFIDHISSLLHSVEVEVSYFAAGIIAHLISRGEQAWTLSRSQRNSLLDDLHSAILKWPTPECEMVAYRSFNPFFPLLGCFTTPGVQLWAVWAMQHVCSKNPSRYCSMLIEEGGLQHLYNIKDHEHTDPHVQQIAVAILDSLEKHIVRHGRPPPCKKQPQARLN

[15] = target: 60 kDa heat shock protein, mitochondrial (UniProt P10809); assay: IP-MS, FLAG-OMP25TM bait (control)
[16] = target: ATP synthase subunit O, mitochondrial precursor (UniProt P48047); assay: IP-MS, FLAG-OMP25TM bait (control)
[17] = target: ATP synthase subunit alpha (UniProt P25705); assay: IP-MS, FLAG-OMP25TM bait (control)
[18] = target: ATP synthase subunit b, mitochondrial precursor (UniProt P24539); assay: IP-MS, FLAG-OMP25TM bait (control)
[19] = target: ATP synthase subunit beta (UniProt P06576); assay: IP-MS, FLAG-OMP25TM bait (control)
[20] = target: ATP synthase subunit d, mitochondrial isoform a (UniProt O75947); assay: IP-MS, FLAG-OMP25TM bait (control)
[21] = target: ATP synthase subunit g, mitochondrial (UniProt O75964); assay: IP-MS, FLAG-OMP25TM bait (control)
[22] = target: ATP synthase subunit gamma, isoform L (UniProt P36542); assay: IP-MS, FLAG-OMP25TM bait (control)
[23] = target: ATPase inhibitor, mitochondria; isoform 1 (UniProt Q9UII2); assay: IP-MS, FLAG-OMP25TM bait (control)
[24] = target: UDP-glucose: glycoprotein glucosyltransferase 1 (UniProt Q9NYU2); assay: IP-MS, FLAG-OMP25TM bait (control)
[25] = target: mitochondrial-processing peptidase subunit alpha (UniProt Q10713); assay: IP-MS, FLAG-OMP25TM bait (control)
[26] = target: mitochondrial-processing peptidase subunit beta (UniProt O75439); assay: IP-MS, FLAG-OMP25TM bait (control)
[27] = target: ornithine aminotransferase (UniProt P04181); assay: IP-MS, FLAG-OMP25TM bait (control)
protein zyg-11 homolog B [28] = target: protein zyg-11 homolog B (UniProt Q9C0D3); assay: IP-MS, FLAG-OMP25TM bait (control)

ATP synthase subunit alpha, sequence (P25705 44-553): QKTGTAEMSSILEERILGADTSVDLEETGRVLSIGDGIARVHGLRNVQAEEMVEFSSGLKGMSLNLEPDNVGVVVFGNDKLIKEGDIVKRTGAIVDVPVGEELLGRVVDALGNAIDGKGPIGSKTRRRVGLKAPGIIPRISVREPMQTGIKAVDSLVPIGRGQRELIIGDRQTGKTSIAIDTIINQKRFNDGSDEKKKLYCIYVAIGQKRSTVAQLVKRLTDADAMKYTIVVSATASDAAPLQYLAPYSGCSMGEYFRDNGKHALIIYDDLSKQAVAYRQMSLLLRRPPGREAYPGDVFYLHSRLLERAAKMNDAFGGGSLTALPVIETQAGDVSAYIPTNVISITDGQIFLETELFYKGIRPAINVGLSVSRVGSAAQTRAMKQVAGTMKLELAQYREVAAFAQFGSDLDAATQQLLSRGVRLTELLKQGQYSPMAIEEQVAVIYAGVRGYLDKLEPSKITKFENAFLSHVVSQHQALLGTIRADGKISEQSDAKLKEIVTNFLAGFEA
60 kDa heat shock protein, mitochondrial, sequence (P10809 27-573 limits assumed): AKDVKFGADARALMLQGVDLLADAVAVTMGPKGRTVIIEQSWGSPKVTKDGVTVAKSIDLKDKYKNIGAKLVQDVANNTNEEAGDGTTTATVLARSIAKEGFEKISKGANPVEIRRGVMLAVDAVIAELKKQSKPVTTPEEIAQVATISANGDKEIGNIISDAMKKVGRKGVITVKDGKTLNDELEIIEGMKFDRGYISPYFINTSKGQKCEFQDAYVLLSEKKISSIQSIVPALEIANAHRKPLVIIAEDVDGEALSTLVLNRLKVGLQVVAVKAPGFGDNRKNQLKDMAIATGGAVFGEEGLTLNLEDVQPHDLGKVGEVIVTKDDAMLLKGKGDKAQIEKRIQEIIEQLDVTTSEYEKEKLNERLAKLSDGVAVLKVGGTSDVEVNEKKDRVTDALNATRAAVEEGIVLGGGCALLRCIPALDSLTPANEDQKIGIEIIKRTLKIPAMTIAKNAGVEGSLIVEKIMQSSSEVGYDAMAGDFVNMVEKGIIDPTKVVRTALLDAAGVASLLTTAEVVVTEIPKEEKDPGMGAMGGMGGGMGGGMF
ATP synthase subunit O, mitochondrial precursor, sequence (P48047 24-213 limits assumed): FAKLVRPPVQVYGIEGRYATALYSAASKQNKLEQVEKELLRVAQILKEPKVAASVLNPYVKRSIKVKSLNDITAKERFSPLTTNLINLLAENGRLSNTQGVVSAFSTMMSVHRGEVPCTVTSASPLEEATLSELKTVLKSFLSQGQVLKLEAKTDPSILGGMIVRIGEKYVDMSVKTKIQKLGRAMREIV

Question: For “Flag tagged ATPIF1 (from UniProt Q9UII2 26-106)”, which IP-MS count (kind of count not given) [1] is on record?
Answer: 28

Question: And the IP-MS count (kind of count not given) [2]?
Answer: 47

Question: What about the IP-MS count (kind of count not given) [3] of the same substance?
Answer: 381

Question: What about the IP-MS count (kind of count not given) [4] of the same substance?
Answer: 44

Question: And the IP-MS count (kind of count not given) [5]?
Answer: 375

Question: And the IP-MS count (kind of count not given) [6]?
Answer: 26

Question: And the IP-MS count (kind of count not given) [7]?
Answer: 14

Question: What about the IP-MS count (kind of count not given) [8] of the same substance?
Answer: 59

Question: What about the IP-MS count (kind of count not given) [9] of the same substance?
Answer: 175

Question: What about the IP-MS count (kind of count not given) [10] of the same substance?
Answer: 15

Question: What about the IP-MS count (kind of count not given) [11] of the same substance?
Answer: 14

Question: What about the IP-MS count (kind of count not given) [12] of the same substance?
Answer: 17

Question: And the IP-MS count (kind of count not given) [13]?
Answer: 16

Question: And the IP-MS count (kind of count not given) (protein zyg-11 homolog B [14])?
Answer: 19

Question: How did the IP-MS count (kind of count not given) [15] turn out when FLAG-OMP25TM was run?
Answer: 4

Question: What about the IP-MS count (kind of count not given) [16] of the same substance?
Answer: 3

Question: What about the IP-MS count (kind of count not given) [17] of the same substance?
Answer: 11

Question: What about the IP-MS count (kind of count not given) [18] of the same substance?
Answer: 3

Question: And the IP-MS count (kind of count not given) [19]?
Answer: 7

Question: What about the IP-MS count (kind of count not given) [20] of the same substance?
Answer: 1

Question: What about the IP-MS count (kind of count not given) [21] of the same substance?
Answer: 0

Question: What about the IP-MS count (kind of count not given) [22] of the same substance?
Answer: 2

Question: And the IP-MS count (kind of count not given) [23]?
Answer: 3

Question: And the IP-MS count (kind of count not given) [24]?
Answer: 5

Question: What about the IP-MS count (kind of count not given) [25] of the same substance?
Answer: 0

Question: What about the IP-MS count (kind of count not given) [26] of the same substance?
Answer: 0

Question: What about the IP-MS count (kind of count not given) [27] of the same substance?
Answer: 1

Question: And the IP-MS count (kind of count not given) (protein zyg-11 homolog B [28])?
Answer: 0
